We go through 19 molecules from paper PMC9427789.

Substitutions are numbered along the chain they refer to. Names and notes keep the numbering of the source.

One assay has as its target Burosumab (wild type). Briefly: indirect ELISA. As to conditions: read off a plot; for response: chain shown with the change, level of the fitted curve at the highest mAb concentration, log [µg/mL] = 0.5, parent: est. 0.57; for ratio to parent: chain shown with the change;. Background: In an ELISA, binding on a coated surface is turned into a signal by an enzyme label.
Assay [1] deals with alanine substitution at H52, R76, F108 residues of FGF23 (three single mutants, as a group) (human). Briefly: ELISA; indirect ELISA: FGF23 or its mutants coated at 2 µg/mL on Maxisorp plates (4 °C overnight), Burosumab or its variants three-fold serially diluted in PBS from 9 µg/mL, room temperature 2 h, anti-human IgG H&L-HRP, A450; fold change from Kd values against the wild type.

B1: mouse FGF23 (wild type), Q9EPC2 T76R (protein)
chain: YPDTSPLLGSNWGSLTHLYTATARTSYHLQIHRDGHVDGTPHQTIYSALMIRSEDAGSVVITGAMTRRFLCMDLHGNIFGSLHFSPENCKFRQWTLENGYDVYLSQKHHYLVSLGRAKRIFQPGTNPPPFSQFLARRNEVPLLHFYTVRPRRHTR
With B1, the response with Burosumab (wild type) is 0.78 A450.

B2: mouse FGF23 (wild type), Q9EPC2 A159S (protein)
chain: B1 chain with R52T, A135S
As to B2, the response in the assay with Burosumab (wild type) is 0.4 A450.

B3: mouse FGF23 (wild type), Q9EPC2 Q117H (protein)
chain: B1 chain with R52T, Q93H
Regarding B3, in the assay with Burosumab (wild type), the response is 0.78 A450.

B4: mouse FGF23 (wild type), Q9EPC2 T49N (protein)
chain: B1 chain with T25N, R52T
For the molecule B4, in the assay with Burosumab (wild type), the response turned out to be 0.59 A450.

B5: His-SUMO-FGF23 (N-terminal domain of human FGF23, wild type), Q9GZV9 R48A (protein)
chain: YPNASPLLGSSWGGLIHLYTATAANSYHLQIHKNGHVDGAPHQTIYSALMIRSEDAGFVVITGVMSRRYLCMDFRGNIFGSHYFDPENCRFQHQTLENGYDVYHSPQYHFLVSLGRAKRAFLPGMNPPPYSQFLSRRNEIPLIHFNTPIPRRHTRSAEDDSERDPLNVLKPRARMTPAPA
For the molecule B5, in the assay with Burosumab (wild type), the ratio to parent came to 1.

B6: His-SUMO-FGF23 (N-terminal domain of human FGF23, wild type), Q9GZV9 R76A (protein)
chain: B5 chain with A24R, R52A
Regarding B6, the ratio to parent with Burosumab (wild type) came out at 8.2.

B7: His-SUMO-FGF23 (N-terminal domain of human FGF23, wild type), Q9GZV9 Y107A (protein)
chain: B5 chain with A24R, Y83A
As for B7, the ratio to parent with Burosumab (wild type) was 1.4.

B8: His-SUMO-FGF23 (N-terminal domain of human FGF23, wild type), Q9GZV9 F108A (protein)
chain: B5 chain with A24R, F84A
Regarding B8, the ratio to parent with Burosumab (wild type) is 6.2.

B9: His-SUMO-FGF23 (N-terminal domain of human FGF23, wild type), Q9GZV9 R99A (protein)
chain: B5 chain with A24R, R75A
Consider B9, for which the ratio to parent with Burosumab (wild type) is 1.4.

B10: His-SUMO-FGF23 (N-terminal domain of human FGF23, wild type), Q9GZV9 F82A (protein)
chain: B5 chain with A24R, F58A
With B10, the ratio to parent with Burosumab (wild type) is 1.1.

B11: His-SUMO-FGF23 (N-terminal domain of human FGF23, wild type), Q9GZV9 H133A (protein)
chain: B5 chain with A24R, H109A
For B11, in the assay with Burosumab (wild type), the ratio to parent was found to be 2.2.

B12: His-SUMO-FGF23 (N-terminal domain of human FGF23, wild type), Q9GZV9 H52A (protein)
chain: B5 chain with A24R, H28A
Take B12: the ratio to parent in the assay with Burosumab (wild type) came out at 9.

B13: His-SUMO-FGF23 (N-terminal domain of human FGF23, wild type), Q9GZV9 E121A (protein)
chain: B5 chain with A24R, E97A
As to B13, the ratio to parent with Burosumab (wild type) is 1.

B14: His-SUMO-FGF23 (N-terminal domain of human FGF23, wild type), Q9GZV9 Y70A (protein)
chain: B5 chain with A24R, Y46A
As to B14, the ratio to parent in the assay with Burosumab (wild type) came to 1.8.

B15: His-SUMO-FGF23 (N-terminal domain of human FGF23, wild type), Q9GZV9 Y43A (protein)
chain: B5 chain with Y19A, A24R
As for B15, in the assay with Burosumab (wild type), the ratio to parent turned out to be 1.7.

B16: Burosumab (wild type) (antibody, V domains shown)
VH: QVQLVQSGAEVKKPGASVKVSCKASGYTFTNHYMHWVRQAPGQGLEWMGIINPISGSTSNAQKFQGRVTMTRDTSTSTVYMELSSLRSEDTAVYYCARDIVDAFDFWGQGTMVTVSS
VL: AIQLTQSPSSLSASVGDRVTITCRASQGISSALVWYQQKPGKAPKLLIYDASSLESGVPSRFSGSGSGTDFTLTISSLQPEDFATYYCQQFNDYFTFGPGTKVDIK
In turn, B16 came in with a fold decrease in binding against wild-type FGF23 in assay [1] of 7 to 10 fold.

B17: mouse FGF23 (wild type), Q9EPC2 Q117H; A159S (protein)
chain: YPDTSPLLGSNWGSLTHLYTATARTSYHLQIHRDGHVDGTPHQTIYSALMITSEDAGSVVITGAMTRRFLCMDLHGNIFGSLHFSPENCKFRHWTLENGYDVYLSQKHHYLVSLGRAKRIFQPGTNPPPFSQFLSRRNEVPLLHFYTVRPRRHTRSAEDPPERDPLNVLKPRPRATPVPVSCSRELPSAEEGGPAASDPLGVLRRGRGDARGGAGGADRCRPFPRFV
With B17, the response with Burosumab (wild type) was 0.8 A450.

B18: mouse FGF23 (wild type), Q9EPC2 T49N; T76R; Q117H; A159S (protein)
chain: B17 chain with T25N, T52R
B18: in the assay with Burosumab (wild type), the response stood at 0.9 A450.

B19: mouse FGF23 (wild type), Q9EPC2 T49N; Q117H; A159S (protein)
chain: B17 chain with T25N
For B19, in the assay with Burosumab (wild type), the response was 0.98 A450.
